Tumor immunity data for 1 molecule are collected here from patent US20040102606A1, “Histone H2A -derived peptides useful in gene delivery” (priority 2003, published 2004).

For this test, the system named is syngeneic mouse model of neuroblastoma. Nature of the test: Vaccination with histone H2A-transfected NXS2 cells, syngeneic mouse model of neuroblastoma. It is filed as in vivo. As to conditions: subcutaneous immunization, histone H2A transient transfection; challenge with wild type tumor cells. The text has this: The present invention also contemplates use of the H2A-derived peptides to facilitate gene delivery in vivo. This embodiment is based on the successful subcutaneous immunization in a novel syngeneic mouse model of neuroblastoma with a single chain IL-12 fusion protein that was mediated by histone H2A transient transfection.
For this approach with intact histone H2A and also extendable to the peptides of this invention, mouse IL-2 and scIL-12 were cloned into the expression vector pcDNA3.1 (Invitrogen, Carlsbad, Calif.) as previously described (Lode et al., Proc. Natl. Acad. Sci., USA, 95:2475-2480, 1998). […] Supercoiled DNA was quantitated on 0.9% agarose gels using Stratagene's Eagle Eye. […] production was quantified on a 24 hour basis in cell culture supernatants using an ELISA assay kit (Biosource, Camarillo, Calif.) and compared with standard preparations of these cytokines. […]
NXS2 cells were tested routinely for the absence of mycoplasma contamination (Gen Probe® Mycoplasma Rapid Detection System, Fisher Scientific, Pittsburgh, Pa.). […] Cell viability was determined using trypan blue staining (Life Technologies, Gaithersburg, Md.), and the number of viable cells per experimental condition were determined. […]

B1: IL-2: mouse IL-2 expressed from pcDNA3.1 in transfected NXS2 cells (protein, UniProt P04351 21-169, looked up)
Interleukin-2: APTSSSTSSSTAEAQQQQQQQQQQQQHLEQLLMDLQELLSRMENYRNLKLPRMLTFKFYLPKQATELKDLQCLEDELGPLRHVLDLTQSKSFQLEDAENFISNIRVTVVKLKGSDNTFECQFDDESATVVDFLRRWIAFCQSIISTSPQ
For the molecule B1, the tumor immunity result was “no tumor immunity”.
